Data reported in paper PMC11101322, “VvWRKY5 positively regulates wounding-induced anthocyanin accumulation in grape by interplaying with VvMYBA1 and promoting jasmonic acid biosynthesis”.

T1: VvMYBA1-HIS (Vitis vinifera, UniProt Q6L9M9 1-250)
T1 sequence: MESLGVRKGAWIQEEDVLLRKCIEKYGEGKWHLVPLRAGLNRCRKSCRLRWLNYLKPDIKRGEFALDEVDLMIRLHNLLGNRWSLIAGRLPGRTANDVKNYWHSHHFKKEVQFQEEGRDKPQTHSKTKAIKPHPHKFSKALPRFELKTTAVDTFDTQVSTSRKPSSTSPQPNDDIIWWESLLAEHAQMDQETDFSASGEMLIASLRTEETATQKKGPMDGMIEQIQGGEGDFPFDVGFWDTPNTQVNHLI

T2: VvWRKY5-HIS (Vitis vinifera, UniProt F6HUN4 7-329)
T2 sequence: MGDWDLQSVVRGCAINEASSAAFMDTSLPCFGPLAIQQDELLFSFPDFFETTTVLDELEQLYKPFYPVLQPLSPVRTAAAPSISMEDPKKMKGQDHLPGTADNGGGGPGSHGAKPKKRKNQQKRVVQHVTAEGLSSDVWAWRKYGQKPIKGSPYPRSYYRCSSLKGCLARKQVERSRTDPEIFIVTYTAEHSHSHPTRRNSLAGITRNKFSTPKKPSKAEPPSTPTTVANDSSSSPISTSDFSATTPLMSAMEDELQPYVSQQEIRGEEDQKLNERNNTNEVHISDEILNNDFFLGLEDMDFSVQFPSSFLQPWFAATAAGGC

B1: VvUFGT probe (dsDNA)
DNA 1: GGATGACAACCCCCATGCAGTTGCCACTCTCACAACCCCC
DNA 2: GGGGGTTGTGAGAGTGGCAACTGCATGGGGGTTGTCATCC
B2: VvLOX mutant probe (dsDNA)
DNA 1: ACCAGCCAATGGAAAATAGCGAAAATACCTAGTCTATTCC
DNA 2: GGAATAGACTAGGTATTTTCGCTATTTTCCATTGGCTGGT

Assays:
[1] = target: T1, VvMYBA1-HIS; assay: EMSA; LightShift Chemiluminescent EMSA system; buffer, salt, pH and temperature not stated; conditions: protein: recombinant; tags: His (pET-32a fusion); label: biotin; blunt
[2] = target: T2, VvWRKY5-HIS; assay: as above; conditions: protein: recombinant, tags: His (pET-32a fusion), blunt

| Binder | binding result [1] | binding result ([2]; label: biotin) | binding result [2] |
| --- | --- | --- | --- |
| B1 | binds | no binding | – |
| B2 | – | – | no binding |
